We go through 2 molecules from publication PMC4686660, “MLLT1 YEATS domain mutations in clinically distinctive Favourable Histology Wilms tumours” (Nature Communications, 2015).

Common to all, as to experiment: ITC; YEATS domain in the measurement cell (90-130 uM), histone peptides in the injection syringe (1.2 mM); 50 mM Hepes pH 7.4, 300 mM NaCl, 5 mM beta-mercaptoethanol, 25 °C; MicroCal ITC200 and TA Nano microcalorimeters; triplicate
On the technique in general: ITC needs no label: the signal is the heat of the interaction.

Experiment [1] addresses wild-type MLLT1 YEATS domain polypeptide (residues 1-138 of human MLLT1) (human) (UniProt Q03111).
The target in experiment [2] is MLLT1 YEATS domain polypeptide p.111_113NPP>K (human) (UniProt Q03111).
Experiment [3] concerns the target T1, MLLT1 YEATS domain polypeptide p.112_114PPV>L (human, UniProt Q03111 1-138, p.112_114PPV>L).
T1 construct: Somatic mutation found in tumours; source: E. coli BL21(pLysS), purified (Ni-NTA sepharose, size exclusion chromatography)
T1 sequence (looked up): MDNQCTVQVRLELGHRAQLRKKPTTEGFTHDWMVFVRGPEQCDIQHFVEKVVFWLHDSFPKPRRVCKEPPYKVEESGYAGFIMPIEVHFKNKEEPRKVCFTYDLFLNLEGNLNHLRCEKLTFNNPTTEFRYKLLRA
The settings on record: both partners purified.

The target of experiment [4] is T2, wild-type MLLT1 YEATS domain polypeptide (residues 1-138 of human MLLT1) (human, UniProt Q03111 1-138).
T2 construct: MLLT1 (ENL), human, YEATS domain, residues 1-138; codon-optimized DNA in pET28 with a thrombin cleavage site between the 6His tag and the protein; also called ENL; YEATS1; source: E. coli BL21(pLysS), purified (Ni-NTA sepharose, size exclusion chromatography)
T2 sequence (looked up): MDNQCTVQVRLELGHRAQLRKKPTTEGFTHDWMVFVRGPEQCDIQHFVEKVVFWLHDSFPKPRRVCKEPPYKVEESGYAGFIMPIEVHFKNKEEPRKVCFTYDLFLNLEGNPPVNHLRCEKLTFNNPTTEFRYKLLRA
The settings on record: both partners purified.

For the molecule H3K27ac histone H3 tail peptide, the figures for the Kd in experiment [1] and in experiment [2] were 140 µM and 330 µM, respectively.

In the case of ARTKQTARKST (acetyl-lysine at K9) [H3K9ac histone H3 tail peptide], the Kd in experiment [3] was found to be 107 µM; in experiment [4], 60 µM.

One may read the Kd as the constant that tells how readily two partners part at equilibrium. A lower Kd goes with a tighter complex.
